# Measurements taken from article PMC11581011.
# Molecular target: recombinantly expressed FphB protein (rFphB), wild type (Staphylococcus aureus) (UniProt Q2FV90)
substance,measurement,value
FphB-OX-5 (peptide),"IC50 of inhibition of rFphB (100 nM), cleavage of the 4-MUB substrate (20 μM)",1.8 µM
